This is an account of results in patent US20130149329A1 (BOARD OF REGENTS FOR OKLAHOMA STATE UNIVERSITY, published 2013).

This assay addresses T1, His-tag IpaB (Shigella flexneri 2457T IpaB with N-terminal His-tag, expressed from pET15b) (Shigella flexneri 2457T, UniProt P18011 1-580).
T1 construct: not shown: N-terminal His-tag from vector pET15b
T1 sequence: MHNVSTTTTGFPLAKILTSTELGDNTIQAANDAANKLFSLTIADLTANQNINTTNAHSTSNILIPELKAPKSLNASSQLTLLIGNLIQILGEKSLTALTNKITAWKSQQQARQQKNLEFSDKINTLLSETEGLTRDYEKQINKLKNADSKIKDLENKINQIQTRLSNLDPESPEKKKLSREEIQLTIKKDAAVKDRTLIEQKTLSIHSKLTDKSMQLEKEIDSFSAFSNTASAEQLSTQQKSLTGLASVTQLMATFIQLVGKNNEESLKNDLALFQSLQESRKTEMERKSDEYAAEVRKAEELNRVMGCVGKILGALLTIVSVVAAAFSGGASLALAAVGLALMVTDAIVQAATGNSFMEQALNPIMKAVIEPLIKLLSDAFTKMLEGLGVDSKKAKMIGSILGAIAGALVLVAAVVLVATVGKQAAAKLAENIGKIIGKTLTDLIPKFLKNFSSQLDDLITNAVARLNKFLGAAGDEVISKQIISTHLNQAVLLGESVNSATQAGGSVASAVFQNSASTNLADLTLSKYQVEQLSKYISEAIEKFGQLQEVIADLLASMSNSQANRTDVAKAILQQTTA
The assay can be described thus: co-expression and co-purification.

B1: IpgC (cognate chaperone of IpaB, untagged, expressed from pACYCDuet-1) (other)
chain: MSLNITENESISTAVIDAINSGATLKDINAIPDDMMDDIYSYAYDFYNKGRIEEAEVFFRFLCIYDFYNVDYIMGLAAIYQIKEQFQQAADLYAVAFALGKNDYTPVFHTGQCQLRLKAPLKAKECFELVIQHSNDEKLKIKAQSYLDAIQDIKE
On to B1, for which the binding result is recorded as “binds”.
